Measured values published in patent US20130065819.

How the values were obtained:
[1] = target: N-terminal FLAG tagged TOE1 mutant D195A
[2] = target: N-terminal FLAG tagged TOE1 mutant D282A
[3] = target: N-terminal FLAG tagged TOE1 mutant D363A
[4] = target: N-terminal FLAG tagged TOE1 mutant D373A
[5] = target: TOE1 mutated at the ExPASy-predicted caspase-1 cleavage site FTAD (position 214-217)
[6] = target: human TOE1 (Target of Egr1)

B1: recombinant caspase-1 (Calbiochem) (protein)
chain: NPAMPTSSGSEGNVKLCSLEEAQRIWKQKSAEIYPIMDKSSRTRLALIICNEEFDSIPRRTGAEVDITGMTMLLQNLGYSVDVKKNLTASDMTTELEAFAHRPEHKTSDSTFLVFMSHGIREGICGKKHSEQVPDILQLNAIFNMLNTKNCPSLKDKPKVIIIQACRGDSPGVVWFKDSVGVSGNLSLPTTEEFEDDAIKKAHIEKDFIAFCSSTPDNVSWRHPTMGSVFIGRLIEHMQEYACSCDVEEIFRKVRFSFEQPDGRAQMPTTERVTLTRCFYLFPGH
[1]
  in vitro caspase-1 cleavage of immunoprecipitated mutant, Western blot: two of these mutations were found to prevent the appearance of a cleavage product of TOE1 upon incubation with caspase-1. These consisted of the D195 and D282 residues within the sites GLID and DIHD respectively
[2]
  in vitro caspase-1 cleavage of immunoprecipitated mutant, Western blot: two of these mutations were found to prevent the appearance of a cleavage product of TOE1 upon incubation with caspase-1. These consisted of the D195 and D282 residues within the sites GLID and DIHD respectively
[3]
  in vitro caspase-1 cleavage of immunoprecipitated mutant, Western blot: caspase-1 cleaves TOE1 at residues 363 and 373 as evidenced by the lack of a 17 kDa fragment in the TOE1 mutants containing an alanine at residues 363 and 373
[4]
  in vitro caspase-1 cleavage of immunoprecipitated mutant, Western blot: caspase-1 cleaves TOE1 at residues 363 and 373 as evidenced by the lack of a 17 kDa fragment in the TOE1 mutants containing an alanine at residues 363 and 373
[5]
  in vitro caspase-1 cleavage of mutant, Western blot: when the caspase-1 cleavage site predicted using the ExPASy software was mutated (FTAD), in vitro cleavage was maintained
[6]
  in vitro digestion of immunoprecipitated TOE1 with recombinant caspase-1, Western blot: We found that TOE1 was indeed processed by caspase-1, and generated multiple cleaved forms
